{"source": "paper PMC8049198", "target": "human prion protein (hPrP), amino acid residues 23-230 (human) (UniProt P04156)", "assay": "high-speed atomic force microscopy (HS-AFM)"}
{"substance": "human prion protein (hPrP), amino acid residues 23-230, P04156 23-230 (domain or fragment; other documents disagree on this pair)", "values": [{"measurement": "stoichiometry N", "value": 6}]}
